Assay: Stability test of ADC mimic in rat plasma (eliminated fluorescent molecules by HPLC/fluorescence detection)
Format: in vitro ADME
Conditions: ADC mimic 0.1 mg/mL, 37° C. for 4 days vs -80° C. (Day 0 = 100%)
Method: Blood stability of various ADC mimics was assessed by analyzing the amounts of fluorescent molecules that were reduced from ADC mimic when ADC mimic was incubated in rat blood as described below.
Sterile filtration was performed on 700 μL of rat plasma (Charles River) after ADC mimic was added to it so as to be 0.1 mg/mL. The solution was dispensed into six Eppen tubes in 50 μL portions. Three of the six samples were stored in an incubator set at 37° C. for 4 days. The remaining three were also stored in a −80° C. freezer for 4 days. 100 μL of acetonitrile was added to each sample, and the mixture was vortexed and centrifuged to obtain a precipitate. The resulting supernatant was collected and analyzed by HPLC.
The determination was made using a liquid chromatography/fluorescence detection method to determine the amount of fluorescence molecules that had eliminated from ADC mimic.
A lower rate of increase indicates higher stability in plasma.
Increase in fluorescence intensity of fluorescent molecules eliminated from Example ADC mimic=[(Day=4 fluorescence intensity)−(Day=0 fluorescence intensity)].
Increase in fluorescence intensity of fluorescent molecules eliminated from Control ADC mimic=[(Day=4 fluorescence intensity)−(Day=0 fluorescence intensity)].
Carboxyrhodamine 110-PEG4-DBCO was separately used to calculate the colleration between area-area of fluorescent intensity and concentration for HPLC. An increase in the fluorescent intensity of the respective ADC mimic was converted into a concentration by using the calculation equation. When the concentration of Day 0 was taken as 100%, the percentage of the concentration of the above increase was calculated as the elimination rate.
In the case of CCCNC(=O)c1cc(N=[N+]=[N-])cc(C(=O)NO)c1 [compound 93], the “Elimination rate of fluorescence molecule at Day = 4” value (“Elimination rate” for short) is reported as less than 3%. In the case of CCCNC(=O)CC[C@H](NC(=O)CCCCN=[N+]=[N-])C(=O)NO [compound 96], the “Elimination rate” value is reported as less than 3%. In the case of CCCNC(=O)CC[C@H](NC(=O)CCCCN=[N+]=[N-])C(=O)NOC [compound 101], the “Elimination rate” value is reported as less than 3%. In the case of CCNC(=O)CC[C@H](NC(=O)CCCCN=[N+]=[N-])C(=O)NOC [compound 102], the “Elimination rate” value is reported as less than 3%. In the case of CCCNC(=O)C[C@H](NC(=O)COCCOCCOCCN=[N+]=[N-])C(=O)NO [compound 107], the “Elimination rate” value is reported as 20%. With CCCNC(=O)C[C@H](NC(=O)CCCCN=[N+]=[N-])C(=O)NO [compound 111] the “Elimination rate” value was 21%.

Reference: patent US20240115719A1, “COMPOUND OR SALT THEREOF, AND ANTIBODY OBTAINED BY USING THE SAME” (priority 2021, published 2024)
